Numbered stars: 1 amine (or outer) side, 2 acyl side, 3 side chain; on linkers, the order of the positions; unused ones are H or OH. Bridge positions count the residues as written; N and C are the ends. Square brackets hold non-standard residues; d marks the D form. Ends that are not written are not given here. X12 = (S)‑(trifluoromethyl)‑L‑cysteine, O=C([C@H](CSC(F)(F)F)N[*:1])[*:2]; Oic = O=C(O)[C@@H]1C[C@@H]2CCCC[C@@H]2N1; Nva(3-Et) = CCC(CC)[C@H](N)C(=O)O; tBuAla = CC(C)(C)C[C@H](N)C(=O)O; Chg = N[C@H](C(=O)O)C1CCCCC1; Pen = CC(C)(S)[C@H](N)C(=O)O; NMeC = CN[C@@H](CS)C(=O)O; Ac4c = NC1(C(=O)O)CCC1; PEG2 = NCCOCCOCCC(=O)O; Sar = CNCC(=O)O

10 molecules from patent US20210246166A1 (Bayer, published 2021) can be followed below.

The chains are these.
B1: (ACBA)-IC+SRS-((tBu)A)-PPI-(Pen)+I-NH2 (peptide)
peptide: [Ac4c]ICSRS[tBuAla]PPI[Pen]I-NH2
modifications: disulfide 3-11; N-terminus assumed
SMILES: CC[C@H](C)[C@H](NC(=O)[C@H]1NC(=O)[C@H]([C@@H](C)CC)NC(=O)[C@@H]2CCCN2C(=O)[C@@H]2CCCN2C(=O)[C@H](CC(C)(C)C)NC(=O)[C@H](CO)NC(=O)[C@H](CCCNC(=N)N)NC(=O)[C@H](CO)NC(=O)[C@@H](NC(=O)[C@@H](NC(=O)C2(N)CCC2)[C@@H](C)CC)CSSC1(C)C)C(N)=O
B2: GIC+SRS-((tBu)A)-P-(Oic)-I-((N-Me)C)+IPD-NH2 (peptide)
peptide: GICSRS[tBuAla]P[Oic]I[NMeC]IPD-NH2
modifications: disulfide 3-11; N-terminus assumed
SMILES: CC[C@H](C)[C@H](NC(=O)CN)C(=O)N[C@H]1CSSC[C@@H](C(=O)N[C@H](C(=O)N2CCC[C@H]2C(=O)N[C@@H](CC(=O)O)C(N)=O)[C@@H](C)CC)N(C)C(=O)[C@H]([C@@H](C)CC)NC(=O)[C@@H]2C[C@@H]3CCCC[C@@H]3N2C(=O)[C@@H]2CCCN2C(=O)[C@H](CC(C)(C)C)NC(=O)[C@H](CO)NC(=O)[C@H](CCCNC(=N)N)NC(=O)[C@H](CO)NC1=O
B3: FIC+SRS-((tBu)A)-PPI-(Pen)+IPD-NH2 (peptide)
peptide: FICSRS[tBuAla]PPI[Pen]IPD-NH2
modifications: disulfide 3-11; N-terminus assumed
SMILES: CC[C@H](C)[C@H](NC(=O)[C@@H](N)Cc1ccccc1)C(=O)N[C@H]1CSSC(C)(C)[C@@H](C(=O)N[C@H](C(=O)N2CCC[C@H]2C(=O)N[C@@H](CC(=O)O)C(N)=O)[C@@H](C)CC)NC(=O)[C@H]([C@@H](C)CC)NC(=O)[C@@H]2CCCN2C(=O)[C@@H]2CCCN2C(=O)[C@H](CC(C)(C)C)NC(=O)[C@H](CO)NC(=O)[C@H](CCCNC(=N)N)NC(=O)[C@H](CO)NC1=O
B4: ((N-Me)G)-IC+SRS-((tBu)A)-PPI-(Pen)+IP-(PEG1(10 atoms))-NH2 (peptide)
peptide: [Sar]ICSRS[tBuAla]PPI[Pen]IP[PEG2]-NH2
modifications: disulfide 3-11; N-terminus assumed
SMILES: CC[C@H](C)[C@H](NC(=O)CNC)C(=O)N[C@H]1CSSC(C)(C)[C@@H](C(=O)N[C@H](C(=O)N2CCC[C@H]2C(=O)NCCOCCOCCC(N)=O)[C@@H](C)CC)NC(=O)[C@H]([C@@H](C)CC)NC(=O)[C@@H]2CCCN2C(=O)[C@@H]2CCCN2C(=O)[C@H](CC(C)(C)C)NC(=O)[C@H](CO)NC(=O)[C@H](CCCNC(=N)N)NC(=O)[C@H](CO)NC1=O
B5: ((N-Me)G)-IC+SRSLP-(Oic)-I-(Pen)+IPE-OH (peptide)
peptide: [Sar]ICSRSLP[Oic]I[Pen]IPE-OH
modifications: disulfide 3-11; N-terminus assumed
SMILES: CC[C@H](C)[C@H](NC(=O)CNC)C(=O)N[C@H]1CSSC(C)(C)[C@@H](C(=O)N[C@H](C(=O)N2CCC[C@H]2C(=O)N[C@@H](CCC(=O)O)C(=O)O)[C@@H](C)CC)NC(=O)[C@H]([C@@H](C)CC)NC(=O)[C@@H]2C[C@@H]3CCCC[C@@H]3N2C(=O)[C@@H]2CCCN2C(=O)[C@H](CC(C)C)NC(=O)[C@H](CO)NC(=O)[C@H](CCCNC(=N)N)NC(=O)[C@H](CO)NC1=O
B6: ((N-Me)G)-IC+SRS-((S)-(trifluoromethyl)-L-cysteine)-PPI-(Pen)+IP-NH2 (peptide)
peptide: [Sar]ICSRS[X12]PPI[Pen]IP-NH2
modifications: disulfide 3-11; N-terminus assumed
SMILES: CC[C@H](C)[C@H](NC(=O)CNC)C(=O)N[C@H]1CSSC(C)(C)[C@@H](C(=O)N[C@H](C(=O)N2CCC[C@H]2C(N)=O)[C@@H](C)CC)NC(=O)[C@H]([C@@H](C)CC)NC(=O)[C@@H]2CCCN2C(=O)[C@@H]2CCCN2C(=O)[C@H](CSC(F)(F)F)NC(=O)[C@H](CO)NC(=O)[C@H](CCCNC(=N)N)NC(=O)[C@H](CO)NC1=O
B7: AIC+SRSLPP-(Chg)-(Pen)+IPD-NH2 (peptide)
peptide: AICSRSLPP[Chg][Pen]IPD-NH2
modifications: disulfide 3-11; N-terminus assumed
SMILES: CC[C@H](C)[C@H](NC(=O)[C@H](C)N)C(=O)N[C@H]1CSSC(C)(C)[C@@H](C(=O)N[C@H](C(=O)N2CCC[C@H]2C(=O)N[C@@H](CC(=O)O)C(N)=O)[C@@H](C)CC)NC(=O)[C@H](C2CCCCC2)NC(=O)[C@@H]2CCCN2C(=O)[C@@H]2CCCN2C(=O)[C@H](CC(C)C)NC(=O)[C@H](CO)NC(=O)[C@H](CCCNC(=N)N)NC(=O)[C@H](CO)NC1=O
B8: AIC+SRSLPP-((S)-2-amino-3-ethyl-pentanoic acid)-C+IPD-NH2 (peptide)
peptide: AICSRSLPP[Nva(3-Et)]CIPD-NH2
modifications: disulfide 3-11; N-terminus assumed
SMILES: CCC(CC)[C@@H]1NC(=O)[C@@H]2CCCN2C(=O)[C@@H]2CCCN2C(=O)[C@H](CC(C)C)NC(=O)[C@H](CO)NC(=O)[C@H](CCCNC(=N)N)NC(=O)[C@H](CO)NC(=O)[C@@H](NC(=O)[C@@H](NC(=O)[C@H](C)N)[C@@H](C)CC)CSSC[C@@H](C(=O)N[C@H](C(=O)N2CCC[C@H]2C(=O)N[C@@H](CC(=O)O)C(N)=O)[C@@H](C)CC)NC1=O
B9: ((N-Me)G)-GIC+SRS-((tBu)A)-PPI-(Pen)+IPD-NH2 (peptide)
peptide: [Sar]GICSRS[tBuAla]PPI[Pen]IPD-NH2
modifications: disulfide 4-12; N-terminus assumed
SMILES: CC[C@H](C)[C@H](NC(=O)CNC(=O)CNC)C(=O)N[C@H]1CSSC(C)(C)[C@@H](C(=O)N[C@H](C(=O)N2CCC[C@H]2C(=O)N[C@@H](CC(=O)O)C(N)=O)[C@@H](C)CC)NC(=O)[C@H]([C@@H](C)CC)NC(=O)[C@@H]2CCCN2C(=O)[C@@H]2CCCN2C(=O)[C@H](CC(C)(C)C)NC(=O)[C@H](CO)NC(=O)[C@H](CCCNC(=N)N)NC(=O)[C@H](CO)NC1=O
B10: AIC+SRS-((tBu)A)-PPIC+IDD-OH (peptide)
peptide: AICSRS[tBuAla]PPICIDD-OH
modifications: disulfide 3-11; N-terminus assumed
SMILES: CC[C@H](C)[C@H](NC(=O)[C@H](C)N)C(=O)N[C@H]1CSSC[C@@H](C(=O)N[C@H](C(=O)N[C@@H](CC(=O)O)C(=O)N[C@@H](CC(=O)O)C(=O)O)[C@@H](C)CC)NC(=O)[C@H]([C@@H](C)CC)NC(=O)[C@@H]2CCCN2C(=O)[C@@H]2CCCN2C(=O)[C@H](CC(C)(C)C)NC(=O)[C@H](CO)NC(=O)[C@H](CCCNC(=N)N)NC(=O)[C@H](CO)NC1=O

The target of the first test is T1, Recombinant human MASP1 enzyme (fragment corresponding to amino acids 297-699, C-terminal His Tag) (human, UniProt P48740 297-699).
T1 sequence: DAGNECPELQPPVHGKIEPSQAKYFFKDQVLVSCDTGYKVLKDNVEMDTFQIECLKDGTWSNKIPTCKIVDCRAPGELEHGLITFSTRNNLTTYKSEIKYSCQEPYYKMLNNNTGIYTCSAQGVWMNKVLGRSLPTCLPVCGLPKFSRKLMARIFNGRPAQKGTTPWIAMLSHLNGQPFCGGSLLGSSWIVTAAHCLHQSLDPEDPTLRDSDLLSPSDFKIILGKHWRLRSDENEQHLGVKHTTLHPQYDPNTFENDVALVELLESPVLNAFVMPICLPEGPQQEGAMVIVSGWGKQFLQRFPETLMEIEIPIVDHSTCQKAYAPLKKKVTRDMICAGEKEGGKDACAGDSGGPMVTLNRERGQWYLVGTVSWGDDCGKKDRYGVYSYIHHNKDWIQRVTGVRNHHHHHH
In words: cell-based or functional assay.
With B1, the “human MASP1 IC50” value came to 5.7 nM.
Consider B2, for which the “human MASP1 IC50” value stood at 6 nM.
As for B3, the “human MASP1 IC50” value was 5.8 nM.
Still for that read-out and setting: with B4 the figure was 5.7 nM; with B5, 6.2 nM; with B6, 6.1 nM.
Turning to B7, the “human MASP1 IC50” value was determined as 5.7 nM.
Consider B8, for which the “human MASP1 IC50” value is 5.8 nM.
The same measure, in the same setting: with B9 the figure was 6.1 nM; with B10, 5.8 nM.

In a further test the target is Recombinant human MASP2 enzyme (fragment corresponding to amino acids 297-686, C-terminal His Tag) (human, UniProt O00187 297-686). The test can be described thus: cell-based or functional assay.
Recombinant human MASP2 enzyme (fragment corresponding to amino acids 297-686, C-terminal His Tag), sequence (O00187 other isoform, or with tags, fused parts or gaps limits assumed): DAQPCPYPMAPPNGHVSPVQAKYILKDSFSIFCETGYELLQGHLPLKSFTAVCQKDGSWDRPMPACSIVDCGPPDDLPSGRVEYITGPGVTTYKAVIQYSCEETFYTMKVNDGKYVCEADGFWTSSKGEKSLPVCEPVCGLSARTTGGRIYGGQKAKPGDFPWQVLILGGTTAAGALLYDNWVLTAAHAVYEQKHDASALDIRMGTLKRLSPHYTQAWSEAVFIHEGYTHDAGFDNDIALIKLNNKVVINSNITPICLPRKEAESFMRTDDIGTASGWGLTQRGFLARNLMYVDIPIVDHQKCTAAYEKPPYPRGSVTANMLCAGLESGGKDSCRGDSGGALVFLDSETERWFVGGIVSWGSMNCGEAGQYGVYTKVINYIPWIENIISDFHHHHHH
B1: the “human MASP2 IC50” value came to 15 nM.
On the same count and under the same terms, with B2 the figure was 740 nM; with B3, 73 nM; with B4, 74 nM.
Turning to B5, the “human MASP2 IC50” value was 180 nM.
Take B6: the “human MASP2 IC50” value was found to be 27 nM.
On to B7, for which the “human MASP2 IC50” value was 44 nM.
On the same count and under the same terms, with B8 the figure was 51 nM; with B9, 170 nM; with B10, 61 nM.
